# B1: PLCγ2: phospholipase C gamma-2 (protein)
# chain: MSTTVNVDSLAEYEKSQIKRALELGTVMTVFSFRKSTPERRTVQVIMETRQVAWSKTADKIEGFLDIMEIKEIRPGKNSKDFERAKAVRQKEDCCFTILYGTQFVLSTLSLAADSKEDAVNWLSGLKILHQEAMNASTPTIIESWLRKQIYSVDQTRRNSISLRELKTILPLINFKVSSAKFLKDKFVEIGAHKDELSFEQFHLFYKKLMFEQQKSILDEFKKDSSVFILGNTDRPDASAVYLHDFQRFLIHEQQEHWAQDLNKVRERMTKFIDDTMRETAEPFLFVDEFLTYLFSRENSIWDEKYDAVDMQDMNNPLSHYWISSSHNTYLTGDQLRSESSPEAYIRCLRMGCRCIELDCWDGPDGKPVIYHGWTRTTKIKFDDVVQAIKDHAFVTSSFPVILSIEEHCSVEQQRHMAKAFKEVFGDLLLTKPTEASADQLPSPSQLREKIIIKHKKLGPRGDVDVNMEDKKDEHKQQGELYMWDSIDQKWTRHYCAIADAKLSFSDDIEQTMEEEVPQDIPPTELHFGEKWFHKKVEKRTSAEKLLQEYCMETGGKDGTFLVRESETFPNDYTLSFWRSGRVQHCRIRSTMEGGTLKYYLTDNLTFSSIYALIQHYRETHLRCAEFELRLTDPVPNPNPHESKPWYYDSLSRGEAEDMLMRIPRDGAFLIRKREGSDSYAITFRARGKVKHCRINRDGRHFVLGTSAYFESLVELVSYYEKHSLYRKMRLRYPVTPELLERYNMERDINSLYDVSRMYVDPSEINPSMPQRTVKALYDYKAKRSDELSFCRGALIHNVSKEPGGWWKGDYGTRIQQYFPSNYVEDISTADFEELEKQIIEDNPLGSLCRGILDLNTYNVVKAPQGKNQKSFVFILEPKQQGDPPVEFATDRVEELFEWFQSIREITWKIDTKENNMKYWEKNQSIAIELSDLVVYCKPTSKTKDNLENPDFREIRSFVETKADSIIRQKPVDLLKYNQKGLTRVYPKGQRVDSSNYDPFRLWLCGSQMVALNFQTADKYMQMNHALFSLNGRTGYVLQPESMRTEKYDPMPPESQRKILMTLTVKVLGARHLPKLGRSIACPFVEVEICGAEYDNNKFKTTVVNDNGLSPIWAPTQEKVTFEIYDPNLAFLRFVVYEEDMFSDPNFLAHATYPIKAVKSGFRSVPLKNGYSEDIELASLLVFCEMRPVLESEEELYSSCRQLRRRQEELNNQLFLYDTHQNLRNANRDALVKEFSVNENQLQLYQEKCNKRLREKRVSNSKFYS
# Test system: NK92 cells
# Experiment: IFNγ production by NK92 cells
# Format: cell-based, human
# Settings: TJW, unpublished
molecule,measurement,value
B1,effect on IFNγ production by NK92 cells,activating
